# In PMC8009664:
# Target: calmodulin (CaM), recombinant bovine 1-149 (UniProt P62157)
# Assay: ITC, peptide titrated into CaM
# Details: reference: unphosphorylated H1H2; sites S648
substance,measurement,value
"NHE1 (Na+/H+ exchanger 1, hNHE1) H1H2, 622-692 (from UniProt P19634) Akt-phosphorylated H1H2 (pS648)",KD,"weaker; reference Kd,1 0.27 ± 0.07; Kd,2 560 ± 10"
